In US20210077638A1 (Regeneron, published 2021):

Tests used:
[1] = target: T1, human MET on EBC-1, NCI-H441 and NCI-H358 cells (human, UniProt P08581 25-1390); assay: saturation radioligand binding (antibody binding capacity) assay with 89Zr-DFO-H4H14639D on EBC-1 cells, 4 C, 45 min, gamma counting; x axis is total antibody dosed, not free
T1 construct: whole, on cells; also called Met receptor; c-Met
Experimental: (§1) This wash process was repeated two more times, before resuspending cells in 200 μL of cold buffer (10% FBS in PBS, v/v). Of the 200 μL, 180 μL from each well was collected and dispensed into flip-cap tubes, representing the cell-bound antibody. […] A calibration curve was generated from the total antibody dosed samples using counts detected vs total antibody dosed per well, T, based on the dilution series starting from the initial antibody concentration (divided by five because of sampling). The calibration curve was used to convert the bound fraction counts (multiplied by […] because of sampling) to mass (or concentration) of bound antibody, B.
(§2) The radioligand internalization was also assayed at the highest dosed concentration at 4° C. for the 45 minutes. […] Activity of cell pellets, stripping supernatants, and wash supernatants were measured using a gamma counter. The fraction internalized, I, was calculated as the ratio of activity of the cell pellet over sum of the total activity of the cell pellet, stripping supernatant and wash supernatants.
(§3) Because there are multiple binding formats for H4H14639D, the data set was fit by the Hill-Langmuir equation (equation 3). The ABC was then calculated using equation 2. Non-specific binding was determined to be a negligible component for all runs was not considered as part of the analysis. […]

[2] = target: T1, human MET on EBC-1, NCI-H441 and …; assay: saturation radioligand binding (antibody binding capacity) assay with 89Zr-DFO-H4H14639D on NCI-H441 cells, 4 C, 45 min, gamma counting; x axis is total antibody dosed, not free
Experimental: as §1, §2, §3

[3] = target: MET ('target' in the SPR assay of Example 2; construct not stated) (UniProt P08581 25-932, limits assumed); assay: SPR, Biacore 8k
Sequence of MET ('target' in the SPR assay of Example 2; construct not stated) (P08581 25-932 limits assumed): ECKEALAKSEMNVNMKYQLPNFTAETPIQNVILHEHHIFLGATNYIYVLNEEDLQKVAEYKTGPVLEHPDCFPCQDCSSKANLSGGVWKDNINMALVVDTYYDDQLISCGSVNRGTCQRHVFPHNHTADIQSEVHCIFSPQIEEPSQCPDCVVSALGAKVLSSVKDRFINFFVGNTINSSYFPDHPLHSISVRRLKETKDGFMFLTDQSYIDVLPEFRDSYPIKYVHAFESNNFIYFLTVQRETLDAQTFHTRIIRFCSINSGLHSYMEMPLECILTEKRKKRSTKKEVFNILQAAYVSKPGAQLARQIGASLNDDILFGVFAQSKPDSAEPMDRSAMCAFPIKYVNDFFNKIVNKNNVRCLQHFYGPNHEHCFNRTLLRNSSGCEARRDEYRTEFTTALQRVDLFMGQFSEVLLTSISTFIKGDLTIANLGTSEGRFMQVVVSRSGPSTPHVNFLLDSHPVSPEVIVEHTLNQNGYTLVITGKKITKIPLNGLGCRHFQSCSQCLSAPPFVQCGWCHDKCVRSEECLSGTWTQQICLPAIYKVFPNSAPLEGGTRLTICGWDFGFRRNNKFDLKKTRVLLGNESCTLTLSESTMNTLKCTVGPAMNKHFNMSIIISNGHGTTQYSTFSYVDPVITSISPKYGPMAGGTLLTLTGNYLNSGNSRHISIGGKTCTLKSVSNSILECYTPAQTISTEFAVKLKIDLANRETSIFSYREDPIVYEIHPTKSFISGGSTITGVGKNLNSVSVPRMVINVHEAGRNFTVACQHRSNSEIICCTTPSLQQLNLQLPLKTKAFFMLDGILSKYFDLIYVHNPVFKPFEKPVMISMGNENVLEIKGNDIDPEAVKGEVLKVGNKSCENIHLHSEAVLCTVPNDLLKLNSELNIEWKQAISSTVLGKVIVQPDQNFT

T1 sequence (P08581 25-1390): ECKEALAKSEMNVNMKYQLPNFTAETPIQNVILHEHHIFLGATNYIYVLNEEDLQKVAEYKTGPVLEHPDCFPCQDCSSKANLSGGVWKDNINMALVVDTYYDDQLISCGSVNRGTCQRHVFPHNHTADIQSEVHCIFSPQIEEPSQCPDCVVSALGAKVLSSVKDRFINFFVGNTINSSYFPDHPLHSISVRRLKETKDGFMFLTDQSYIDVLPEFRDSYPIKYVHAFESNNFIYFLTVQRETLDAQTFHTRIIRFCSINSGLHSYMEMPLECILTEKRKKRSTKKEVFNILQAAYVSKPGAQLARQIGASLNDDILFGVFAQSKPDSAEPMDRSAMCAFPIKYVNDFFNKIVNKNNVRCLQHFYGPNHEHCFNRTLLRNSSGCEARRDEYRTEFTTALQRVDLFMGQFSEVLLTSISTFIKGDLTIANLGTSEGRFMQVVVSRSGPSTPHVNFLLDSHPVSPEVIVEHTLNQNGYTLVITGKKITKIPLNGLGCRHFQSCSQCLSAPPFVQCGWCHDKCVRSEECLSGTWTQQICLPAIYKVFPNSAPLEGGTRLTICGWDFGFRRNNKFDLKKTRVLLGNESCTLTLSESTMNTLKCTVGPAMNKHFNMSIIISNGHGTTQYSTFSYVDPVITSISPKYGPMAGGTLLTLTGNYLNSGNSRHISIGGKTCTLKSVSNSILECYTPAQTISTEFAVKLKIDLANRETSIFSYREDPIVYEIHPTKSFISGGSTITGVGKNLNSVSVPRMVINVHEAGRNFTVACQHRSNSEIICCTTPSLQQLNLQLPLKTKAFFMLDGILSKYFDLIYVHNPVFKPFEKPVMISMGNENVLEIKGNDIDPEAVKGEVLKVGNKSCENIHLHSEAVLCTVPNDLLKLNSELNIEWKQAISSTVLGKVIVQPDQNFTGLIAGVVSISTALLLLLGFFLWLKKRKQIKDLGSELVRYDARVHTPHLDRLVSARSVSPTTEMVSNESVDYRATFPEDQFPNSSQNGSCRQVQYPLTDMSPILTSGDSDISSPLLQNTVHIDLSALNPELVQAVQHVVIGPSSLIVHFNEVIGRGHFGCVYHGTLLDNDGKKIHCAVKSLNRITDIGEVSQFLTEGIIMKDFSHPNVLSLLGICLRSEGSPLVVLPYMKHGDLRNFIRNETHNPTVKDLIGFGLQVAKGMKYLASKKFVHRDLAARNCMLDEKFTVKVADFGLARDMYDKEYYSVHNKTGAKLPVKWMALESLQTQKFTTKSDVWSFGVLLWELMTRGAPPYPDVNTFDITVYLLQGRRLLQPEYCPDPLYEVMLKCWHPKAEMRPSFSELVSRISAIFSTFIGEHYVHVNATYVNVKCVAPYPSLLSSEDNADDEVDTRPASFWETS

EC50 (read off the curve) [1]	EC50 (read off the curve) [2]	KD relative to the KD of the unconjugated bispecific antibody [3]	Binder
~3 nM	~2 nM		89Zr-DFO-H4H14639D (bispecific antibody, V domains shown, p-SCN-Bn-DFO on primary amines (sites not given), chelating 89Zr, also called DFO-Ab radioimmunoconjugate; 89Zr-DFO-MET x MET bispecific antibody conjugate) VH 1: EVQLVESGGGLVQPGTSLRLSCAASGFTFDDYAMHWVRQAPGKGLEWVSGITWNSYNIDYADSVKGRFTISRDNAKNSLYLQMNSLRAEDTALYYCAKDDDYSNYVYFDYWGQGTLVTVSS VH 2: EVQLVESGGGLVQPGGSLRLSCAASGFIVTTNYMTWLRQAPGKGLEWVSLIYSSGHTYYADSVKGRFTISRHNSKNTLYLQMDSLRAEDTAVYYCASAFAADVFDIWGQGTMVTVSS VL: not shown
		≤ 10%	DFO-H4H14639D immunoconjugate (DAR 1.26) (bispecific antibody, V domains shown, p-SCN-Bn-DFO on primary amines, sites not stated; average DAR 1.26 per antibody, also called DFO-Ab immunoconjugate; DFO-MET x MET immunoconjugate) VH 1: EVQLVESGGGLVQPGTSLRLSCAASGFTFDDYAMHWVRQAPGKGLEWVSGITWNSYNIDYADSVKGRFTISRDNAKNSLYLQMNSLRAEDTALYYCAKDDDYSNYVYFDYWGQGTLVTVSS VH 2: EVQLVESGGGLVQPGGSLRLSCAASGFIVTTNYMTWLRQAPGKGLEWVSLIYSSGHTYYADSVKGRFTISRHNSKNTLYLQMDSLRAEDTAVYYCASAFAADVFDIWGQGTMVTVSS VL: not shown
